Consider one molecule from patent publication US6770458 (VANDERBILT UNIVERSITY, dated 2004).

In this assay the target is T1, SNF1 fused to the GAL4 DNA-binding domain (pAS2) (UniProt P04386 1-147; P06782 1-633, limits assumed).
T1 construct: Unrelated control protein in the yeast two-hybrid system
The assay is described as follows: yeast two-hybrid, β-galactosidase. How it is done:
Cloning of STRAP. Northern blot and Southern blot analysis—Y190 containing pAS2-R4C was transformed with a pACT-mouse embryonic cDNA library, and transformants were subjected to selection for histidine prototrophy on SC-his, -trp, -leu plates containing 25 mM 3-aminotriazole (as described in Harper at al., *Cell* 75: 805–816 (1993) and Durfee et al., *Genes Dev.* 7:555–569 (1993)) and rare surviving colonies were then screened for β-galactosidase activity using a colony filter lift assay. Resulting clones, after second screening, were mated with Y187 containing the unrelated proteins p53, lamin, SNF1 and CDK2 fused to the GAL4 DNA-binding domain and tested for β-galactosidase activity. Positive clones were recovered from yeast and retransformed into Y190 with one of several unrelated molecules including lamin, SNF1, p53 or CDK2 in pAS2, for further testing of the specific interaction.
A color photograph was prepared showing STRAP or FKBP12.6 in pACT transformed into yeast strain Y190 containing R4C or one of several unrelated proteins including lamin. SNF1, p53 or CDK2 in pAS2. Transformants were tested for β-galactosidase activity by colony filter lift assay. A blue color indicated a positive interaction.

B1: STRAP (Serine-Threonine Kinase Receptors Associated Protein) in pACT (other)
chain: MAMRQTPLTCSGHTRPVVDLAFSGITPYGYFLISACKDGKPMLRQGDTGDWIGTFLGHKGAVWGATLNKDATKAATAAADFTAKVWDAVSGDELMTLAHKHIVKTVDFTQDSNYLLTGGQDKLLRIYDLNKPEAEPKEISGHTSGIKKALWCSDDKQILSADDKTVRLWDHATMTEVKSLNFNMSVSSMEYIPEGEILVITYGRSIAFHSAVSLEPIKSFEAPATINSASLHPEKEFLVAGGEDFKLYKYDYNSGEELESYKGHFGPIHCVRFSPDGELYASGSEDGTLRLWQTVVGKTYGLWKCVLPEEDSGELAKPKIGFPETAEEELAEEIASENSDSIYSSTPEVKA
notes: Yeast two-hybrid prey from a pACT mouse embryonic cDNA library (1.6 kb cDNA); also called STRAP clone; not shown: fusion partner encoded by the pACT library vector
Regarding B1, the binding result is “no binding”.
